From patent US20250152743A1, “SYNPOPTOSIS CIRCUITS FOR PROGRAMMABLE CELL DEATH CONTROL” (California Institute of Technology, priority 2023, published 2025)
Like-named read-outs stand apart in the source and are kept apart here.

Test system: HEK cells
Test: Transient DNA transfection of HEK cells, Annexin/Sytox staining, flow cytometry
Format: cell-based, human
Conditions: for pyroptosis, Sytox staining: with TEVP / cognate protease
Experimental: HEK cells were transiently co-transfected with DNA encoding the circuits, often along with Cherry, a fluorescent protein marker, and cells were analyzed by flow cytometry 16 to 24 hours later. To quantify cell death, the cells were strained with Annexin, Sytox, or both. Annexin stains apoptotic cells by binding to phosphatidylserine exposed on the outer leaflet, and pyroptotic cells by binding to phosphatidylserine in the inner leaflet after membrane permeabilization. In contrast, Sytox, a membrane-impermeable dye, primarily stains pyroptotic cells. Therefore, apoptotic cells are typically Annexin-high and Sytox-low, while pyroptotic cells are Annexin-high and Sytox-high (FIG. 7B). For simplicity, in experiments involving only a single death mode, a single relevant dye was often used. To focus on cells influenced by the circuits, the fraction of Annexin- or Sytox-positive cells was calculated after gating on the fluorescent co-transfection marker (FIG. 7C).
On the day before transfection, HEK cells were seeded at a density of 0.3-0.6 million cells per well on a 12-well plate, 0.1-0.3 million cells per well on a 24-well plate, or 15,000-50,000 cells per well on a 96-well plate. The cells were allowed to attach to the plate overnight, for at least 8 hours. On the day of transfection, we treated the cells with purified DNA plasmids encoding circuit components. In addition to plasmids encoding circuit components, we often included a plasmid encoding a fluorescent co-transfection marker, at roughly 50 ng DNA per well on a 24-well plate. Given the different number of molecular components in each synthetic circuit and their various relative ratios, the total amount of DNA ranged from 50 to 1 μg per well on a 24-well plate, and was scaled by […] when other 12-well or 96-well plates were used, respectively. On the same plate, we often equalized the total amount of DNA across all transfected wells, using a filler plasmid encoding the neomycin resistance gene. To transfect cells with plasmid DNA, we used three types of transfection reagents—Lipofectamine 2000 (Thermo Fisher), Lipofectamine 3000 (Thermo Fisher), and FuGENE HD (Promega), according to manufacturers' instructions. Briefly, for a typical transfection experiment on a 24-well plate, we mixed plasmids and the transfection reagent, around 200 ng of DNA per 1 μl of Lipofectamine 2000, in 25 μl of Opti-MEM reduced serum medium (Thermo Fisher), incubated the mixture for 5-10 min at room temperature, and then added another 25 μl of Opti-MEM before transferring the mixture dropwise to culture wells. We also performed some transfection experiments using the Lipofectamine 3000 kit (Thermo Fisher), at a ratio of 2,000 ng of DNA, 2 ul of 4 ul of P3000, and 3 μl of Lipofectamine 3000. We similarly diluted the mixture in Opti-MEM before adding it to cells. For transfection with FuGENE, we used a ratio of 4 μl FuGENE:1 μg of DNA, and incubated the DNA-FuGENE mixture at room temperature for 5 min before transfection. To enable protein expression from plasmids with a doxycycline-inducible promoter, doxycycline was added to the cell culture at a final concentration of 100 ng/mL. In experiments involving Q-VD-OPh, the compound was added to the cell culture at a final concentration of 30 μM, immediately after the cells received the transfection mixture. To transfect cells with in vitro transcribed mRNA, Lipofectamine MessengerMax (Thermo Fisher) was used. Briefly, for transfection of one well in a 96-well plate, 0.1 μL of Lipofectamine MessengerMAX was diluted in 1.25 μL Opti-MEM and incubated for 10 minutes at room temperature. mRNA was then added to Opti-MEM to the appropriate conditions at the following amounts: 12.5 ng of fluorescent co-transfection marker, 56.25 ng of protease, and 56.25 ng of engineered executioner. Diluted mRNA was then added to diluted MessengerMAX reagent and incubated for 5 minutes at room temperature before addition to Jurkat or THP-1 cells in RPMI media. […]

[1] = co-transfected with wildtype GSDME, TEVP and TEVP-activatable caspase-3

B1: tobacco vein mottling virus protease (protein)
chain: MGSSKALLKGVRDFNPISACVCLLENSSDGHSERLFGIGFGPYIIANQHLFRRNNGELTIKTMHGEFKVKNSTQLQMKPVEGRDIIVIKMAKDFPPFPQKLKFRQPTIKDRVCMVSTNFQQKSVSSLVSESSHIVHKEDTSFWQHWITTKDGQCGSPLVSIIDGNILGIHSLTHTTNGSNYFVEFPEKFVATYLDAADGWCKNWKFNADKISWGSFTLVEDAPEDDFMAKKTVAAIMDS
notes: viral input protease
- activation of cognate engineered GSDMs containing the cleavage sites (tev, tvmv and hcv sites): orthogonally activated their cognate engineered GSDMs

B2: silencer: leucine zipper-fused GSDMA C-terminal domain; SEQ ID NO: 43 (protein)
chain: MGSEQLEKKLQALEKKLAQLEWKNQALEKKLAQGGSGSSMHEDFKTLKEEVQRETQEVEKLSPVGRSSLLTSLSHLLGKKKELQDLEQKLEGALDKGQKVTLEALPKDVLLSKDAMDAILYFLGALTELTEEQLKILVKSLEKKILPVQLKLVESTLEQNFLQDKEGVFPLQPDLLSSLGEEELTLTEALVGLSGLEVQRSGPQYAWDPDTRHNLCALYAGLSLLHLLSRKSNALTYCALS
- inhibition of pyroptosis induced by wildtype GSDMA N-terminal domain: did not inhibit pyroptosis
- inhibition of pyroptosis induced by zipper-attached GSDMA N-terminal domain (GSDMA N-Z): markedly suppressed pyroptosis
- inhibition of pyroptosis induced by zipper-attached GSDMA N-terminal domain (GSDMA N-Z) (listed as GSDMA Z-C): potently inhibited an engineered active executioner

B3: wildtype GSDME: natural substrate for caspase-3; SEQ ID NO: 21 (protein)
chain: MGFAKATRNFLREVDADGDLIAVSNLNDSDKLQLLSLVTKKKRFWCWQRPKYQFLSLTLGDVLIEDQFPSPVVVESDFVKYEGKFANHVSGTLETALGKVKLNLGGSSRVESQSSFGTLRKQEVDLQQLIRDSAERTINLRNPVLQQVLEGRNEVLCVLTQKITTMQKCVISEHMQVEEKCGGIVGIQTKTVQVSATEDGNVTKDSNVVLEIPAATTIAYGVIELYVKLDGQFEFCLLRGKQGGFENKKRIDSVYLDPLVFREFAFIDMPDAAHGISSQDGPLSVLKQATLLLERNFHPFAELPEPQQTALSDIFQAVLFDDELLMVLEPVCDDLVSGLSPTVAVLGELKPRQQQDLVAFLQLVGCSLQGGCPGPEDAGSKQLFMTAYFLVSALAEMPDSAAALLGTCCKLQIIPTLCHLLRALSDDGVSDLEDPTLTPLKDTERFGIVQRLFASADISLERLKSSVKAVILKDSKVFPLLLCITLNGLCALGREHS
- mode of cell death, Sytox and Annexin double staining (background of TEVP activating TEVP-activatable caspase-3): caused pyroptosis in response to TEVP-mediated caspase-3 activation
- cell death by the protein alone (without caspase-3 activation): alone did not induce cell death

B4: FIG. 1D, fifth module: GSDMA N-terminal domain fused to TEVP site-caged N-degron; SEQ ID NOs: 20, 40 (protein)
chain: MGSENLYFQRHKSGAWKLPVSLVKPVFEDVTRALVRELNPRGDLTPLDSLIDFKHFRPFCLVLRKRKSTLFWGARYVRTDYTLLDLLEPGSSPSDLTDSGNFSFKNMLDVQVQGLVEVPKTVKVKGTAGLSQSSTLEVQTLSVAPSALENLKKERKLSADHSFLNEMRYHEKNLYVVMEAVEAKQEVTVEQTGNANAIFSLPSLALLGLQGSLNNNKAVTIPKGCVLAYRVRLLRVFLFNLWDIPYICNDSMQTFPKIRRVPCSAFISPTQMISEEPEEEKLIGEMGSENLYFQRHKSGAWKLPVSLVKPVFEDVTRALVRELNPRGDLTPLDSLIDFKHFRPFCLVLRKRKSTLFWGARYVRTDYTLLDLLEPGSSPSDLTDSGNFSFKNMLDVQVQGLVEVPKTVKVKGTAGLSQSSTLEVQTLSVAPSALENLKKERKLSADHSFLNEMRYHEKNLYVVMEAVEAKQEVTVEQTGNANAIFSLPSLALLGLQGSLNNNKAVTIPKGCVLAYRVRLLRVFLFNLWDIPYICNDSMQTFPKIRRVPCSAFISPTQMISEEPEEEKLIGE
- pyroptosis, Sytox staining: allowed protease-mediated suppression of pyroptosis

B5: I217N: GSDME N-terminal domain mutant I217N; SEQ ID NO: 22 (protein)
chain: MGFAKATRNFLREVDADGDLIAVSNLNDSDKLQLLSLVTKKKRFWCWQRPKYQFLSLTLGDVLIEDQFPSPVVVESDFVKYEGKFANHVSGTLETALGKVKLNLGGSSRVESQSSFGTLRKQEVDLQQLIRDSAERTINLRNPVLQQVLEGRNEVLCVLTQKITTMQKCVISEHMQVEEKCGGIVGIQTKTVQVSATEDGNVTKDSNVVLEIPAATTNAYGVIELYVKLDGQFEFCLLRGKQGGFENKKRIDSVYLDPLVFREFAFIDMPD
- inhibition of wildtype GSDME N-induced pyroptosis: capable of inhibiting the wildtype counterpart
- pyroptotic activity of GSDME N-terminal domain mutant: defective in inducing pyroptosis
- apoptosis, Annexin levels [1]: permitting caspase-3-induced apoptosis, as read out by high Annexin levels
- pyroptosis, Sytox uptake [1]: suppressed pyroptosis, as evidenced by reduced Sytox uptake
- pyroptosis, Sytox uptake (co-transfected with wildtype GSDME, TEVP and TEVP-activatable caspase-3, listed as GSDME inhibitor): pyroptosis could be attenuated to various degrees
- inhibition of wildtype GSDME N-induced pyroptosis (listed as GSDME N(mut)): inhibited wildtype GSDME N-induced pyroptosis

B6: FIG. 1D, third module: GSDMA N-terminal domain fused to TEVP-removable degron; SEQ ID NO: 18 (protein)
chain: MGSPVFEDVTRALVRELNPRGDLTPLDSLIDFKHFRPFCLVLRKRKSTLFWGARYVRTDYTLLDLLEPGSSPSDLTDSGNFSFKNMLDVQVQGLVEVPKTVKVKGTAGLSQSSTLEVQTLSVAPSALENLKKERKLSADHSFLNEMRYHEKNLYVVMEAVEAKQEVTVEQTGNANAIFSLPSLALLGLQGSLNNNKAVTIPKGCVLAYRVRLLRVFLFNLWDIPYICNDSMQTFPKIRRVPCSAFISPTQMISEEPEEEKLIGEGGSGLENLYFQSGSGSISLIAALAVDYVIGMENAMPWNLPADLAWFKRNTLNKPVIMGRHTWESIGRPLPGRKNIILSSQPSTDDRVTWVKSVDEAIAACGDVPEIMVIGGGRVIEQFLPKAQKLYLTHIDAEVEGDTHFPDYEPDDWESVFSEFHDADAQNSHSYCFEILERR
- pyroptosis, Sytox staining: removal of the degron by TEVP also induced pyroptosis

B7: FIG. 1D, fourth module: GSDMA N-terminal domain with internal TEVP cleavage site; SEQ ID NO: 19 (protein)
chain: MGSPVFEDVTRALVRELNPRGDLTPLDSLIDFKHFRPFCLVLRKRKSTLFWGARYVRTDYTLLDLLEPGSSPSDLTDSGNFSFKENLYFQSNMLDVQVQGLVEVPKTVKVKGTAGLSQSSTLEVQTLSVAPSALENLKKERKLSADHSFLNEMRYHEKNLYVVMEAVEAKQEVTVEQTGNANAIFSLPSLALLGLQGSLNNNKAVTIPKGCVLAYRVRLLRVFLFNLWDIPYICNDSMQTFPKIRRVPCSAFISPTQMISEEPEEEKLIGE
- pyroptosis, Sytox staining: abolished its activity
